Laboratory results reported in paper PMC8683613.

How the values were obtained:
[1] = biological target: oxygen-cleaved pyruvate formate-lyase mimic (cPFL, residues 1-733) (E. coli)
[2] = biological target: oxygen-cleaved pyruvate formate-lyase mimic (cPFL, residues 1-733) (E. coli); remark: listed apart in the source
[3] = biological target: truncated pyruvate formate-lyase (tPFL, residues 1-695) (E. coli)
[4] = biological target: oxygen-cleaved pyruvate formate-lyase mimic (cPFL, residues 1-733) (E. coli); assay: ITC; YfiD variant in the syringe titrated into the PFL variant in the cell, matched buffer; MicroCal iTC200, 25 °C, 20 injections of 2.0 μl

Chain of oxygen-cleaved pyruvate formate-lyase mimic (cPFL, residues 1-733) (E. coli) (P09373 2-734 limits assumed): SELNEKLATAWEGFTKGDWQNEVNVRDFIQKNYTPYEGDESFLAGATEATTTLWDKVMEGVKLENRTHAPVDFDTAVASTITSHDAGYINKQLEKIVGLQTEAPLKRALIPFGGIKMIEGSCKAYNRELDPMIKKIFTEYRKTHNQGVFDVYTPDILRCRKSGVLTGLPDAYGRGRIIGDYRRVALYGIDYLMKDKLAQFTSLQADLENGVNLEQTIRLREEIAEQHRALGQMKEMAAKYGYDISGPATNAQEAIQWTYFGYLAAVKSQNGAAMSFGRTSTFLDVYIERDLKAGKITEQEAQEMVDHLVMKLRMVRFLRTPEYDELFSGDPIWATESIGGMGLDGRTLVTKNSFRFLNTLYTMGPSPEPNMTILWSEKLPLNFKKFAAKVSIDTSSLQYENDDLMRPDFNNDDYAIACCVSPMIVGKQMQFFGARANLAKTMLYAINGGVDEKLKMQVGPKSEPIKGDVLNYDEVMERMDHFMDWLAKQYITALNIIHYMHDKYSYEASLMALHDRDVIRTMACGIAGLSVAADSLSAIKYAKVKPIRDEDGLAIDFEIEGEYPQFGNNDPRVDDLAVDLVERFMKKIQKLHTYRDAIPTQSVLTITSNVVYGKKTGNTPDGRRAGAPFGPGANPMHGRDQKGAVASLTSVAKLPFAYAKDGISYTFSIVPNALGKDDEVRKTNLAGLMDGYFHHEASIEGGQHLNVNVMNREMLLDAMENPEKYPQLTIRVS
Chain of truncated pyruvate formate-lyase (tPFL, residues 1-695) (E. coli) (P09373 1-695): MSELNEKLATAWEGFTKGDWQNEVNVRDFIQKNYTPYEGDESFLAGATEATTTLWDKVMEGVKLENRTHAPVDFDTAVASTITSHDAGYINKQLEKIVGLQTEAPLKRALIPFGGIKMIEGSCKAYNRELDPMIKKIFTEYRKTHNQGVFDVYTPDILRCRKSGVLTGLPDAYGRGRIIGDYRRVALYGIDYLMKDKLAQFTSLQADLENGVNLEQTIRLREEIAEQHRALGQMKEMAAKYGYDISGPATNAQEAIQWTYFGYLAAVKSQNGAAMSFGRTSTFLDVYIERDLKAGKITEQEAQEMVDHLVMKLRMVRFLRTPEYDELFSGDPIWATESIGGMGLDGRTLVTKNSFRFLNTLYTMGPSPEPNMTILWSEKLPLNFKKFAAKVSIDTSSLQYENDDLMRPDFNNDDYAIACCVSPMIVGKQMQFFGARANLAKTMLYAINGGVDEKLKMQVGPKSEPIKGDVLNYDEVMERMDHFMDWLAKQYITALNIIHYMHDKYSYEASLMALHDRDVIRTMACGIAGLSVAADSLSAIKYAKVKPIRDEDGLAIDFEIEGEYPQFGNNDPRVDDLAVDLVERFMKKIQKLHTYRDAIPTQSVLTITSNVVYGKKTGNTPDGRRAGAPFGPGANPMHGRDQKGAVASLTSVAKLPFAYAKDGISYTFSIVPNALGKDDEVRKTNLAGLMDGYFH

Substance | apparent kcat of acetyl-CoA production by the activated cPFL:truncYfiD complex (coupled assay, 21 °C, per glycyl radical) [1] [s⁻¹] | glycyl radical installed by PFL-AE on the 1:1 cPFL:truncYfiD mixture (200 μM each), quantified by EPR [2] [µM] | glycyl radical installed by PFL-AE on the 1:1 tPFL:truncYfiD mixture (200 μM each), quantified by EPR [3] [µM] | glycyl radical installed by PFL-AE on the 1:1 cPFL:YfiD mixture (200 μM each), quantified by EPR; no detectable radical for the individual components [2] [µM] | glycyl radical installed by PFL-AE on the 1:1 tPFL:YfiD mixture (200 μM each), quantified by EPR [3] [µM] | Kd [4] [µM]
truncated YfiD (truncYfiD, residues 61-127) (from UniProt P68066 61-127) (domain or fragment) | 186 | 4.1 | 2.7 |  |  | 
YfiD (spare part protein, autonomous glycyl radical cofactor) (from UniProt P68066 1-127) (natural protein) |  |  |  | 15.9 | 0.5 | 14
